Experimental data reported in patent US20120301930A1 (YEDA RESEARCH AND DEVELOPMENT, published 2012).

What was measured:
[1] = molecular target: T1, 11A-XBM-a chimera (catalytic module of T. fusca Xyn11A together with its adjacent XBM attached to dockerin B …); test: affinity-based ELISA; complex formation also by non-denaturing PAGE
T1 construct: Recombinant chimera expressed in E. coli, purified on a Ni column (His-tag); also called variant Xyn11A

[2] = molecular target: T2, 11A-a chimera (catalytic module of T. fusca Xyn11A attached directly to dockerin B from Acetivibrio …); test: as above
T2 construct: Recombinant chimera expressed in E. coli, purified on a Ni column (His-tag)

[3] = molecular target: T3, f-5A chimera (catalytic module of T. fusca family-5 endoglucanase Cel5A fused to a dockerin from Ruminococcus …); test: non-denaturing PAGE mobility shift, equimolar mixture
T3 construct: Recombinant chimera expressed in E. coli; all enzyme constructs were designed to contain a His-tag; also called variant Cel5A
T3 chain: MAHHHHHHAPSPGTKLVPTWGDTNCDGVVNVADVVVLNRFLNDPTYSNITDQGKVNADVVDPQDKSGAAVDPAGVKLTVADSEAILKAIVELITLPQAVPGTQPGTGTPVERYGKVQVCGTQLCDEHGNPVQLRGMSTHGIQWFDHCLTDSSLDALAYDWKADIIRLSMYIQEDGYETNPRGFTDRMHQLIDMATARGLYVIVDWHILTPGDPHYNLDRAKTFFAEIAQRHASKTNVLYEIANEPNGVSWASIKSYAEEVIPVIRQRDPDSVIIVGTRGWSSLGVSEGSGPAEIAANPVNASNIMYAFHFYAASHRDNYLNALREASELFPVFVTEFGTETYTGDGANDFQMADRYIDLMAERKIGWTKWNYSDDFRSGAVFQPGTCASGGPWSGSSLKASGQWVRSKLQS

binding result [1]: binds
binding result [2]: binds
binding result [3]: binds
B1: Scaf-AF chimeric scaffoldin (cohesin 3 from A. cellulolyticus scaffoldin C, CBM3a from C. thermocellum, cohesin 1 from R. flavefaciens scaffoldin B) (other)
chain: MDLQVDIGSTSGKAGSVVSVPITFTNVPKSGIYALSFRTNFDPQKVTVASIDAGSLIENASDFTTYYNNENGFASMTFEAPVDRARIIDSDGVFATINFKVSDSAKVGELYNITTNSAYTSFYYSGTDEIKNVVYNDGKIEVIASVPTNTPTNTPANTPVSGNLKVEFYNSNPSDTTNSINPQFKVTNTGSSAIDLSKLTLRYYYTVDGQKDQTFWCDHAAIIGSNGSYNGITSNVKGTFVKMSSSTNNADTYLEISFTGGTLEPGAHVQIQGRFAKNDWSNYTQSNDYSFKSASQFVEWDQVTAYLNGVLVWGKEPGGSVVPSTQPVTTPPATTKPPATTIPPSEDPAGGLSAVQPNVSLGEVLDVSANRTAADGTVEWLIPTVTAAPGQTVTMPVVVKSSSLAVAGAQFKIQAATGVSYSSKTDGDAYGSGIVYNNSKYAFGQGAGRGIVAADDSVVLTLAYTVPADCAEGTYDVKWSDAFVSDTDGQNITSKVTLTDGAIIVHHHHHH
